# Assay results: US20230051715A1 (MABWELL THERAPEUTICS, published 2023)
# T1: full-length mouse C1s (produced in house) (mouse, UniProt Q8CG14 16-688)
# T1 construct: Called full-length; also called MoC1s; moC1s
# T1 sequence: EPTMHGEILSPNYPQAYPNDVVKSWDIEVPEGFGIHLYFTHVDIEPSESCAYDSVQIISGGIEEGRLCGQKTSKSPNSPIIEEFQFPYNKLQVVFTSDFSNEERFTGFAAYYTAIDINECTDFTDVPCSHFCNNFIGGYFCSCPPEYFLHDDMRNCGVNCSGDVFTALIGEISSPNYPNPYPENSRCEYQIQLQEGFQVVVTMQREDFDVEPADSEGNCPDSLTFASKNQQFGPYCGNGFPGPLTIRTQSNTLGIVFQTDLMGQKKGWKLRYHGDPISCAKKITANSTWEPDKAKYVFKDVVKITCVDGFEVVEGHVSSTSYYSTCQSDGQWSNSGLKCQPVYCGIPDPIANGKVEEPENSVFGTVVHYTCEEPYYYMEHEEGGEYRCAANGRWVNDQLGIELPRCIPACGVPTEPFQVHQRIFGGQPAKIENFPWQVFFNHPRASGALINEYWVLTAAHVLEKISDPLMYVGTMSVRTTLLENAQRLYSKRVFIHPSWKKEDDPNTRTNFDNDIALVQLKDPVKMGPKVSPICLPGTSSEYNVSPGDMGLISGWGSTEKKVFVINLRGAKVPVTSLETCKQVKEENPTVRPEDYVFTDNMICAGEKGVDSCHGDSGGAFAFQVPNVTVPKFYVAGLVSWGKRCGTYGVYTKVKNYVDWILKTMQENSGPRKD
# T2: human C1s mutant M6 (P280A, E282K & K336G) (human, UniProt P09871 16-688)
# T2 construct: The entry is the mutant itself
# T2 sequence: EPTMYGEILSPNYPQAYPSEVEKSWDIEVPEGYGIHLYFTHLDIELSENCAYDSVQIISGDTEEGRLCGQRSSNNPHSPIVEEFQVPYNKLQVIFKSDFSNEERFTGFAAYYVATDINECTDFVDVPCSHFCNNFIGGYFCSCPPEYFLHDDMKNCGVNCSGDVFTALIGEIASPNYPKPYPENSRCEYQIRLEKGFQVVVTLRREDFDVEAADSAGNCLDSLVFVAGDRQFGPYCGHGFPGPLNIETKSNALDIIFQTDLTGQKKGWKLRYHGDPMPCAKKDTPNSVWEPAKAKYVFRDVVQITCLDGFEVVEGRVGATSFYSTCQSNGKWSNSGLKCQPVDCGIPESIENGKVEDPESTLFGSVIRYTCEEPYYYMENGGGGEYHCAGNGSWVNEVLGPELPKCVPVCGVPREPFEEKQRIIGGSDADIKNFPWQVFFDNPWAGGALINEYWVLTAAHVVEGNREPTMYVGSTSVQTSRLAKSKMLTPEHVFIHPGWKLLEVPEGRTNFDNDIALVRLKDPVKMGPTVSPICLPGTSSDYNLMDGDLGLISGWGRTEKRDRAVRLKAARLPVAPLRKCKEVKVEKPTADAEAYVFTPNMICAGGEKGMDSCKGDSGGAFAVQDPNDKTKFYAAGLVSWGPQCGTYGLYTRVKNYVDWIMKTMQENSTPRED
# Experiments:
# [1] = target: T1, full-length mouse C1s (produced in …); assay: ELISA, plate coated with 200 ng/well MoC1s, OD450nm
# Protocol: The next morning, plates were blocked with SuperBlock T20 blocking buffer (Thermo Scientific 37536) for 1 h with gentle shaking. Then, various concentrations of anti-C1s antibodies diluted in SuperBlock T20 blocking buffer were added to the plates and incubated for 1 h with gentle shaking. Mouse IgG (Sigma-Aldrich I5381) and Human IgG1 (BioXCell BP0297) were used as negative controls. The plates were washed before incubating with HRP conjugated secondary antibodies diluted in SuperBlock T20 blocking buffer (goat anti-mouse IgG (H+L) cross-adsorbed secondary antibody HRP (Invitrogen G-21040) or goat anti-human IgG antibody, HRP conjugate (Millipore AP309P)) for 1 h with gentle shaking. At last, the plates were washed and color developed with ELISA liquid substrate (Sigma-Aldrich), followed by stopping the reaction with addition of the same volume of […] 1M H₂SO₄. Bound antibody was measured by absorbance at OD₄₅₀ₙₘ.
# [2] = target: T2, human C1s mutant M6 (P280A, E282K & …); assay: ELISA, plate coated with human C1s mutant M6: P280A, E282K, K336G, OD450nm
# Protocol: ELISA was carried out by first coating 96-well plates with 200 ng/well of full-length or truncated C1s proteins overnight. The next morning, plates were blocked with SuperBlock T20 blocking buffer (Thermo Scientific 37536) for 1 h with gentle shaking. Then, various concentrations of anti-C1s antibodies diluted in SuperBlock T20 blocking buffer were added to the plates and incubated for 1 h with gentle shaking. Mouse IgG (Sigma-Aldrich 15381) and human IgG1 (BioXCell BP0297) were used as negative controls. The plates were washed before incubating with HRP conjugated secondary antibodies diluted in SuperBlock T20 blocking buffer (goat anti-mouse IgG (H+L) cross-adsorbed secondary antibody HRP (Invitrogen G-21040) or goat anti-human IgG antibody, HRP conjugate (Millipore AP309P)) for 1 h with gentle shaking. At last, the plates were washed and color developed with ELISA liquid HRP substrate (Sigma-Aldrich), followed by stopping the reaction with addition of 1M H₂SO₄ in the same volume as the ELISA liquid substrate. Bound antibody was measured by absorbance at OD₄₅₀ₙₘ.
# Binding of anti-C1s antibodies to mutants M1-M20 of human C1s was measured by ELISA as described in Example 4, and results are shown in FIGS. 6B-6U. […]
Binder,binding result [1],EC50 [2]
"Anti-C1s antibody hz2-8 (H1L2 G80A/T82A) (antibody, V domains shown, Humanized variant with G80A and T82A in HC CDR2 (already in the entry), human IgG1 / kappa) VH: QVQLVQSGAEVKKPGASVKVSCKASGFNIKEYYMHWVRQAPEQGLEWMGWIDPENADAIYAQKFQGRVTITADTSTNTAYMELSSLRSEDTAVYYCARSRLFFAYWGQGTLVTVSS VL: DIQMTQSPKSLSASVGDRVTITCRASQDVRTALDWYQQKPGQSPKLLIYSASYRYSGVPSRFSGSGSGTDFTLTISSLQPEDFATYYCQQQYTTPYTFGQGTKLEIKR",no binding (tested: 1000 ng/ml (Log 3)),0.06 µg/mL
"Anti-C1s antibody hz2-7(H1L2) (antibody, V domains shown, Humanized, human IgG1 / kappa; also called hz2-7(1L2)) VH: EVQLLESGGGLVQPGGSLRLSCAASGFTFSNYFMNWVRQAPGKGLEWVSEIRLKFTNYATHYADSVKGRFTISRDDSKSTLYLQMNSLRAEDTAVYYCTRDYGSRNGYFDYWGQGTLVTVSS VL: DIVMTQTPLSLPVTPGEPASISCRSSKSLLHSNGNTFLYWFLQKPGQSPQLLIYRMSNLASGVPDRFSGSGSGTDFTLKISRVEAEDVGVYYCMQHLEYPYTFGGGTKLEIKR",no binding (tested: 1000 ng/ml (Log 3)),0.013 µg/mL
"Anti-C1s antibody 2-8 (antibody, V domains shown, the HC/LC entries may hold it too; also called clone 2-8) VH: EVQLQQSGAELVRPGALVKLSCKASGFNIKEYYMHWVKQRPEQGLEWIGWIDPENGDTIYDPKFQGKASITADTSSNTAYLQLSSLTSEDTAVYYCARSRLFFAYWGQGTLVTVSA VL: DIVMTQSHKFMSTSVGDRVSFTCKASQDVRTAVDWYQQKPGQSPKLLIYSASYRYTGVPDRFTGTGSGTDFTFTISSVQAEDLAVYFCQQQYTTPYTFGGGTKLEIKT",no binding (tested: 1000 ng/ml (Log 3)),
"Anti-C1s antibody 2-7 (antibody, human IgG1, kappa, V domains shown, the HC/LC entries may hold it too; also called clone 2-7) VH: EVKLEESGGGLVPPGGSMKLSCVASGFTFSNYFMNWVRQSPEKGLEWVAEIRLKFTNYATHYAESVEGRFTISRDDSKSSVYLQMNNLRAEDTGIYYCTRDYGSRNGYFDYWGQGTTLTVSS VL: DIVMTQAAPSVPVTPGESVSISCRSSKSLLHSNGNTFLYWFLQRPGQSPQLLIYRMSNLASGVPDRFSGSGSGTAFTLRVSRVEAEDVGIYYCMQHLEYPYTFGGGTKLEIKT",no binding (tested: 1000 ng/ml (Log 3)),
